Source: PMC10402027 (bioRxiv, 2023)

Biological target: T1, progesterone receptor, B isoform (PR-B) (UniProt P06401 1-933)
T1 sequence: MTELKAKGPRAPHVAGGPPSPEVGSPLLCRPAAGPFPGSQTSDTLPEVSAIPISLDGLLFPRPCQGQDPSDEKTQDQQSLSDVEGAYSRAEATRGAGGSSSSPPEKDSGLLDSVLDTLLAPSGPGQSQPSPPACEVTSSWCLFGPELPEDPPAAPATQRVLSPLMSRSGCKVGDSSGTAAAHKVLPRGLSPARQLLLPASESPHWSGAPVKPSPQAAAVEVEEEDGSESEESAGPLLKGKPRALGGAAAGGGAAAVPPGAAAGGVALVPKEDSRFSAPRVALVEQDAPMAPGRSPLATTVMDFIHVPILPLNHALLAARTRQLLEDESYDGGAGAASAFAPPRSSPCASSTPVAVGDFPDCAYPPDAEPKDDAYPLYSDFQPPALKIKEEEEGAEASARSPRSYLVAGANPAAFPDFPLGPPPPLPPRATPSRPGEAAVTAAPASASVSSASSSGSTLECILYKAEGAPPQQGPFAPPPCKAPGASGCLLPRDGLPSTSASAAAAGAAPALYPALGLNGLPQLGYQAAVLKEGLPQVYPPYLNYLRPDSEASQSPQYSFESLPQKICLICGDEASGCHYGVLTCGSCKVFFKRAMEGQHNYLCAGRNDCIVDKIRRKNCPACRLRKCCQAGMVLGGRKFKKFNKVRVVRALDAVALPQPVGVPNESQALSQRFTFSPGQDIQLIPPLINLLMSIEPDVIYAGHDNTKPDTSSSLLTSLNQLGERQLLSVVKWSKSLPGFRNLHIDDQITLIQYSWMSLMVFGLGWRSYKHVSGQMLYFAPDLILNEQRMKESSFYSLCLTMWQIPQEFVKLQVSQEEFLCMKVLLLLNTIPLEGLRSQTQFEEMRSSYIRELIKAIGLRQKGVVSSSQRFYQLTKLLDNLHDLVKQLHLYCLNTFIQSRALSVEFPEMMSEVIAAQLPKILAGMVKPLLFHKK
Assay: FRET or BRET

fold of the progesterone-induced increase in NanoBRET proximity against ERα WT: ~2 fold
B1: estrogen receptor alpha Y537S (ERα Y537S) (receptor)
chain: MTMTLHTKASGMALLHQIQGNELEPLNRPQLKIPLERPLGEVYLDSSKPAVYNYPEGAAYEFNAAAAANAQVYGQTGLPYGPGSEAAAFGSNGLGGFPPLNSVSPSPLMLLHPPPQLSPFLQPHGQQVPYYLENEPSGYTVREAGPPAFYRPNSDNRRQGGRERLASTNDKGSMAMESAKETRYCAVCNDYASGYHYGVWSCEGCKAFFKRSIQGHNDYMCPATNQCTIDKNRRKSCQACRLRKCYEVGMMKGGIRKDRRGGRMLKHKRQRDDGEGRGEVGSAGDMRAANLWPSPLMIKRSKKNSLALSLTADQMVSALLDAEPPILYSEYDPTRPFSEASMMGLLTNLADRELVHMINWAKRVPGFVDLTLHDQVHLLECAWLEILMIGLVWRSMEHPGKLLFAPNLLLDRNQGKCVEGMVEIFDMLLATSSRFRMMNLQGEEFVCLKSIILLNSGVYTFLSSTLKSLEEKDHIHRVLDKITDTLIHLMAKAGLTLQQQHQRLAQLLLILSHIRHMSNKGMEHLYSMKCKNVVPLSDLLLEMLDAHRLHAPTSRGGASVEETDQSHLATAGSTSSHSLQKYYITGEAEGFPATV
